This note sets out measurements from the RNAGym collection of RNA variant scans (doi:10.7554/elife.90254).

B1: LINE1-full (parent)
chain: UACGUAGGUGGUUUUCCCCUGAUAGUGCUAAGGGGGCCUGGAAGUUUGGACUGGGCAGAGCUCAACACAGCGUGGCAAAGUGGCUGUGGCUAGACUGCCUCUCUGGAUUCCUCGUCACUCAGCAGGGCAUCUCUGAGAGAAAUGCC

This series covers variants of B1. Description: self-cleavage, relative activity (ratio to wild type); higher = more cleavage; in vitro, sequencing; the parent is a self-cleaving ribozyme.
A79U G135C: the self-cleavage was 2.76.
Turning to C76U C95U, the self-cleavage is 0.41.
On to A79U C111G, for which the self-cleavage is 2.75.
Take A78U U87G: the self-cleavage came out at 0.23.
Regarding A78U C99U, the self-cleavage amounted to 1.07.
Consider A79U U104C, for which the self-cleavage amounted to 2.47.
In the case of A78U A129G, the self-cleavage stood at 2.49.
In the case of A77U U81C, the self-cleavage is 1.47.
As for A77U A141G, the self-cleavage was found to be 1.4.
For A77U A141U, the self-cleavage amounted to 1.07.
In the case of A77U A141C, the self-cleavage stood at 1.32.
In the case of A77G C84U, the self-cleavage was determined as 0.25.
Take A79G U112C: the self-cleavage was found to be 1.74.
With A77U A79U, the self-cleavage stood at 1.89.
Turning to A77G A78G, the self-cleavage was 1.68.
The result for A79U A124U reads 0.67; that for A79U A124G, 0.87; that for G75A A141G, 1.16.
With A79C U96C, the self-cleavage is 0.11.
As for A77C U112C, the self-cleavage amounted to 1.84.
Take A78G U96C: the self-cleavage is 0.1.
The same measure for A77C A94G: 0; for A79G A121G: 1.21; for G75C U119A: 0.95.
In the case of G80A, the self-cleavage is 1.93.
Consider A79C U100C, for which the self-cleavage came to 2.76.
For G80A A117G, the self-cleavage was 2.22.
The result for G75U A78U reads 1.49.
Regarding A78G U81A, the self-cleavage is 0.47.
On to A79G G97A, for which the self-cleavage was 0.08.
Regarding A78G G89A, the self-cleavage was found to be 0.04.
On to A77G A121U, for which the self-cleavage is 2.74.
A79G U85G: the self-cleavage worked out at 0.11.
Consider A79G U85A, for which the self-cleavage was found to be 0.08.
Take A79G U85C: the self-cleavage came out at 0.11.
Turning to A77U A107C, the self-cleavage turned out to be 1.21.
A77U A107G: the self-cleavage turned out to be 1.29.
Turning to A79U G137A, the self-cleavage came to 1.87.
On to A79G U132C, for which the self-cleavage was 1.43.
Regarding A79G U132A, the self-cleavage amounted to 1.25.
In the case of C76A U143A, the self-cleavage is 1.65.
Consider A78U U130A, for which the self-cleavage is 2.96.
As for A79U U100C, the self-cleavage was 2.92.
Consider A79U U100G, for which the self-cleavage was found to be 1.24.
Consider A79G A124U, for which the self-cleavage stood at 1.19.
Take A77G U104G: the self-cleavage turned out to be 1.87.
As for G75C U134A, the self-cleavage turned out to be 0.49.
G75U U115A: the self-cleavage is 1.06.
In the case of A77G G137A, the self-cleavage turned out to be 2.66.
As for A79U U81C, the self-cleavage came to 0.4.
In the case of A77C A142G, the self-cleavage turned out to be 1.34.
Turning to A79G C128U, the self-cleavage worked out at 0.92.
As to C76A A124G, the self-cleavage amounted to 0.92.
The result for A78G G126U reads 1.75; that for A79G U81G, 0.43.
Turning to A78U G114A, the self-cleavage stood at 1.75.
Regarding C76U A94G, the self-cleavage is 0.18.
Turning to A78G C111U, the self-cleavage was found to be 0.93.
In the case of C76U U104C, the self-cleavage was found to be 2.05.
The result for A78G A92G reads 0.11; that for A78G A92U, 0.64; that for A79G U109G, 0.8.
Turning to A79G G86A, the self-cleavage came out at 0.09.
Regarding A79G U115C, the self-cleavage stood at 1.32.
With A77G G82U, the self-cleavage came out at 2.49.
With A77G G82A, the self-cleavage came to 0.85.
The result for A77G U91C reads 0.
The result for A77G G83U reads 1.28; that for A77U U115A, 0.82; that for A79U A107G, 2.26.
The same measure for A77U C84U: 0.08.
For the variant A77U G126A, the self-cleavage stood at 1.46.
As for C76G A141G, the self-cleavage was 2.47.
The result for C76A U81C reads 1.46; that for C76A U81G, 0.33; that for A79G C120G, 1.08.
As for A79G C120U, the self-cleavage is 1.26.
As for A77G C98U, the self-cleavage is 0.54.
Regarding A79G G93U, the self-cleavage is 0.06.
With A79G G93A, the self-cleavage was found to be 0.04.
As to G75A G135A, the self-cleavage amounted to 1.18.
In the case of A77U A142G, the self-cleavage is 1.46.
Regarding A77U C113A, the self-cleavage stood at 0.92.
The same measure for A78C C90U: 0.03; for A79U A140G: 1.85; for A77U C90U: 0.03.
Consider A77U G83A, for which the self-cleavage is 0.74.
The same measure for A77G A142G: 2.14; for A78C U119C: 2.95.
For the variant A77G G126A, the self-cleavage was found to be 2.42.
The same measure for A77U G93A: 0.02; for A79U U112A: 1.97; for G75C A142U: 0.66.
On to A78G U102A, for which the self-cleavage turned out to be 1.24.
Consider A78U U91C, for which the self-cleavage came out at 1.13.
For the variant A78U U91A, the self-cleavage was determined as 0.85.
As for G75A C123U, the self-cleavage stood at 0.69.
With C76G U102C, the self-cleavage turned out to be 2.25.
Take A77U U104A: the self-cleavage is 0.58.
The same measure for A78G C113U: 0.93.
On to A79G G106U, for which the self-cleavage came to 1.48.
A77G G135U: the self-cleavage stood at 0.63.
As for A78G C116A, the self-cleavage was 0.87.
Regarding A79G U102G, the self-cleavage stood at 0.49.
Consider A77U G97U, for which the self-cleavage stood at 0.09.
In the case of A77U G97A, the self-cleavage stood at 0.07.
The same measure for A79G C90A: 0.04; for G75A U143A: 1.53; for C76G C84A: 0.14.
For the variant A77C U102C, the self-cleavage turned out to be 0.
On to A77U U143A, for which the self-cleavage turned out to be 1.18.
The result for A77G G127A reads 2.11; that for A79C U119C, 1.82.
The result for A77G G106A reads 2; that for A77C U115A, 1.28; that for A79U U119C, 2.41.
The same measure for A79G U100C: 1.46; for A78G G97U: 0.03.
Consider A78G G97A, for which the self-cleavage worked out at 0.11.
C76U G105C: the self-cleavage amounted to 2.51.
With A77G A140G, the self-cleavage amounted to 1.7.
As for A77G A140U, the self-cleavage came out at 2.21.
As for A79G C113U, the self-cleavage came out at 0.75.
As to A77G U100C, the self-cleavage was 2.88.
For A78C A124G, the self-cleavage was determined as 0.94.
With A77U A94U, the self-cleavage was 0.2.
The same measure for A79G U134A: 1.07; for A77U A124G: 0.79; for A78G U91A: 0.38.
Turning to C76U U132C, the self-cleavage was 1.8.
With A79U C110A, the self-cleavage was 1.64.
C76U A117G: the self-cleavage stood at 2.24.
The same measure for C76U A117C: 2.66; for C76U A138G: 2.42; for C76U G82A: 2.8.
For G75A U119C, the self-cleavage was 1.5.
Consider A77U U130C, for which the self-cleavage was determined as 1.56.
The result for A77U U130A reads 1.01; that for A78G C133U, 1.27; that for A77C U130C, 1.89.
G80A A107G: the self-cleavage was found to be 2.12.
The same measure for A78G A117U: 1.6; for A78G A117C: 1.69; for A79U U102C: 1.04.
For C76U U102C, the self-cleavage was 0.59.
As for A77U U112C, the self-cleavage stood at 1.29.
The same measure for A78G U119A: 1.33; for A78G U119C: 1.55; for G80A A124G: 1.
A78G: the self-cleavage was 1.23.
The result for A78U reads 1.92; that for A78C, 2.41.
The result for A79G A94U reads 0.26; that for C76G A78G, 1.7.
The result for A79G C133A reads 1.12.
Take A77G A117U: the self-cleavage came to 2.58.
The same measure for A77U U109G: 0.61; for A77U U109A: 1.68.
As to A79G U87A, the self-cleavage amounted to 0.06.
Turning to A79G U87C, the self-cleavage worked out at 0.17.
For A77G G139A, the self-cleavage was determined as 1.52.
Turning to A78G U134C, the self-cleavage amounted to 1.49.
The same measure for A79U G89U: 0.03.
Take A79U G89C: the self-cleavage amounted to 0.02.
On to A77C U81C, for which the self-cleavage is 0.
The result for A77G U119G reads 1.39; that for A77G U119A, 2.04.
